Experimental data as given in paper PMC13324253 (NPJ Vaccines, 2026).
Where no end group is shown, it is not given here.

Legend:
Experiment in all cases: ELISA; biotinylated P21 or P29 (2 ug/ml) on streptavidin-coated plates, PfCSP (2 ug/ml) coated on high-binding plates; 100 ul RATPIg supernatant, 1 h at room temperature; peroxidase goat anti-mouse IgG, OD450
Details in all cases: one partner purified
[1] = biological target: T1, junctional peptide P21 (NPDPNANPNVDPNAN) (Plasmodium falciparum, also: biotin, end not given here)
T1 construct: junctional 15-mer peptide of PfCSP; Biotinylated, held on streptavidin-coated plates in the ELISA; Probably a synthetic peptide (surmise); also called peptide 21
T1 chain: NPDPNANPNVDPNAN

[2] = biological target: T2, major repeat peptide P29 (NANPNANPNANPNAN) (Plasmodium falciparum, also: biotin, end not given here)
T2 construct: major repeat 15-mer peptide of PfCSP; Biotinylated, held on streptavidin-coated plates in the ELISA; Probably a synthetic peptide (surmise)
T2 chain: NANPNANPNANPNAN

[3] = biological target: T3, Plasmodium falciparum circumsporozoite protein (PfCSP), full-length (Plasmodium falciparum, 3D7 (strain not …, UniProt Q7K740))
T3 construct: Plasmodium falciparum circumsporozoite protein, called full-length; recombinant 'full-length' PfCSP may lack the signal peptide and the GPI anchor signal (surmise); also called flCSP
T3 sequence (Q7K740 19-374): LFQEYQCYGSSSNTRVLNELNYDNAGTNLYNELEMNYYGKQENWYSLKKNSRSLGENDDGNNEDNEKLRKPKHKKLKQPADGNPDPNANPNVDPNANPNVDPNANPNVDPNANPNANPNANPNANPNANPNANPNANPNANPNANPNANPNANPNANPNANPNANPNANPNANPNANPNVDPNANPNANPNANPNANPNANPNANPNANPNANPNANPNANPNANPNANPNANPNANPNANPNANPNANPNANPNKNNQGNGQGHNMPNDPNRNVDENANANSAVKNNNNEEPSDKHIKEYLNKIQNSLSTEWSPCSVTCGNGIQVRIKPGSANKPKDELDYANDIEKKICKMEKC

B1: P21/P29 double binder of mouse 5147 (PADRE-LuS-3T-immunized mouse) (antibody, V domains shown)
VH: DVQLQESGPGLVKPSQSLSLTCSVTGYSITSGYYWNWIRQFPGNKLEWMGYISYDGSNNYNPSLKNRISITRDTSKNQFFLKLNSVTTEDTATYYCARDDYDGFDYWGQGTTLTVSS
VL: DIQMTQSPSSLSASLGGKVTITCKASQDINKYIAWYQHKPGKGPRLLIHYTSTLQPGIPSRFSGSGSGRDYSFSISNLEPEDIATYYCLQYDNLWTFGGGTKLEIK
notes: Expressed IgG from a single sorted B cell; source: Expi293, transfected with RATP-Ig cassettes, in culture supernatant
binding result [1]: binds | binding result [2]: binds

B2: one strong PfCSP-binding antibody of R21-immunized mouse 5116 (antibody, V domains shown)
VH: QIQLLQSGPELVKPGASVRISCKASGYTLTDHYINWVKQRPGQGLEWIGWIYPGSAEIKFNEKFKGKASLTVDTSSSTAYMQLSSLTSEDSAVYFCARSGYGGLDYWGQGSTLTVSS
VL: DLGMTQSHKFMSTSVGDRVTITCKASQDVGTAVAWYQQKPGQSPKLLIYWASTRHTGVPDRFTGSGSGTDFTLTITNVQSEDLADYFCQQFTIYPWTFGGGTKLEIK
notes: as for B1
binding result [3]: binds

B3: one strong P29-binding antibody of R21-immunized mouse 5116 (antibody, V domains shown)
VH: QVQLQQSGAELARPGASVKLSCKASGYTFTSYAISWVKQRTGQGLEWIGEIYPRSGNIYYNEKFKGKATLTADKSSSTAYMELRSLTSEDSAVYFCARRGDVYFGGYWGQGTTLTVSS
VL: DIVMTQSHKFMSTSVGDRVIITCKASQDVGTAVVWYQQKPGQSPKLLIYWASTRHTGVPDRFTGSGSGTDFTLTISNVQSEDLADYFCQQYNSYPLTFGAGTKLELK
notes: as for B1
binding result [2]: binds
